In general, Kd refers to the constant that tells how readily two partners part at equilibrium.

Among the data in patent publication US20090111753A1, “Nogo-A Polypeptide Fragments, Variant Nogo Receptor-1 Polypeptides, and Uses Thereof” (Yale University, priority 2004, published 2009) are binding result and Kd values, retold here.

Assay [1] concerns the target T1, human NgR1 alanine mutant 133, 136 (human, UniProt Q9BZR6 27-473).
T1 sequence: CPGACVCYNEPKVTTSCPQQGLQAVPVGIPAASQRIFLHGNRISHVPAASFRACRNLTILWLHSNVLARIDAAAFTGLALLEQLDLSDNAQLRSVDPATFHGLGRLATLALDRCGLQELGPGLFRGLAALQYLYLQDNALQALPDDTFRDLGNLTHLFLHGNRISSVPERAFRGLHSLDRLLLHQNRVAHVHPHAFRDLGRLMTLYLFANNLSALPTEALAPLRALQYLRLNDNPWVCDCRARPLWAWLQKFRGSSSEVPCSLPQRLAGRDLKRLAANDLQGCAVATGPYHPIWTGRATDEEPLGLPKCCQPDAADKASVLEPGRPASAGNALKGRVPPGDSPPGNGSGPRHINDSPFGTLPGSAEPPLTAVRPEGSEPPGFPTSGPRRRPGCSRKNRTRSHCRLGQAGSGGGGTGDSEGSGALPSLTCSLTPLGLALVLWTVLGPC
Description: AP-ligand binding, COS-7.

Assay [2] deals with T2, human NgR1 alanine mutant 158, 160 (human, UniProt Q9BZR6 27-473).
T2 sequence: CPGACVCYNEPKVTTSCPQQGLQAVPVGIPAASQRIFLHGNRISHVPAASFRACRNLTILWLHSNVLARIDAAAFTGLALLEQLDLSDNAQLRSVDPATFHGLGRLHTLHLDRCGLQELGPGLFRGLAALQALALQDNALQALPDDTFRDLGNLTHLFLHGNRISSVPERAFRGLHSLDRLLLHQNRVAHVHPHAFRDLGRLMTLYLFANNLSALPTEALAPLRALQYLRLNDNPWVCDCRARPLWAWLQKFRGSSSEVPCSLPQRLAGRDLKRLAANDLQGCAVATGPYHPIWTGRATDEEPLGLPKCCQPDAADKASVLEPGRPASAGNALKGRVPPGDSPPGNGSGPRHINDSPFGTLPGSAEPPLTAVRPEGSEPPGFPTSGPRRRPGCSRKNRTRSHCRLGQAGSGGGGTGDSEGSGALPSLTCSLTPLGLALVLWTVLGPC
As to the kind of experiment: AP-ligand binding, COS-7.

Assay [3] concerns the target T3, human NgR1 alanine mutant 182, 186 (human, UniProt Q9BZR6 27-473).
T3 sequence: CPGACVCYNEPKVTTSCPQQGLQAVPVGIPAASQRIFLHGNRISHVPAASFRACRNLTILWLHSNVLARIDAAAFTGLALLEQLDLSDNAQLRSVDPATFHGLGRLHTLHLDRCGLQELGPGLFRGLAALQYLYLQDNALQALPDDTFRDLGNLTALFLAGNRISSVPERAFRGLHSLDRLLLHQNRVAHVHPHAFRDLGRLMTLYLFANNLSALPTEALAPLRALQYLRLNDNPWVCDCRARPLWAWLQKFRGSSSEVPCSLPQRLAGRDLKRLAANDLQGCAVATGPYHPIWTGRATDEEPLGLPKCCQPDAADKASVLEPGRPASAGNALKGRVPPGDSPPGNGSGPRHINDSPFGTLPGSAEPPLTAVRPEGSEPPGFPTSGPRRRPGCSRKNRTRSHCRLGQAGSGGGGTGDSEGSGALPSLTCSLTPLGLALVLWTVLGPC
Description: AP-ligand binding, COS-7.

Assay [4] has as its target T4, human NgR1 alanine mutant 232, 234 (human, UniProt Q9BZR6 27-473).
T4 sequence: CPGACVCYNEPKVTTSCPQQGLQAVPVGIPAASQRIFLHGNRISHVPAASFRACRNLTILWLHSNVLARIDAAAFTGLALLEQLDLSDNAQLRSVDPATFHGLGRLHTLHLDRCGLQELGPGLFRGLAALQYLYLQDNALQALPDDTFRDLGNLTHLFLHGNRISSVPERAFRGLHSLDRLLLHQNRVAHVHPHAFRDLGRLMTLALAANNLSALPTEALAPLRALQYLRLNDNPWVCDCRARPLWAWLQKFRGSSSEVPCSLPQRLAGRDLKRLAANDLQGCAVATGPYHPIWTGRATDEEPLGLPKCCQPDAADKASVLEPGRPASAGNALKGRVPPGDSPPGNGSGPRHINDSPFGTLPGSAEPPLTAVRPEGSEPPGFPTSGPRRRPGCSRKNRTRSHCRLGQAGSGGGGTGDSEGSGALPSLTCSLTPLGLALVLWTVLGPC
Description: AP-ligand binding, COS-7.

Assay [5] has as its target T5, human NgR1 alanine mutant 82, 179 (human, UniProt Q9BZR6 27-473).
T5 sequence: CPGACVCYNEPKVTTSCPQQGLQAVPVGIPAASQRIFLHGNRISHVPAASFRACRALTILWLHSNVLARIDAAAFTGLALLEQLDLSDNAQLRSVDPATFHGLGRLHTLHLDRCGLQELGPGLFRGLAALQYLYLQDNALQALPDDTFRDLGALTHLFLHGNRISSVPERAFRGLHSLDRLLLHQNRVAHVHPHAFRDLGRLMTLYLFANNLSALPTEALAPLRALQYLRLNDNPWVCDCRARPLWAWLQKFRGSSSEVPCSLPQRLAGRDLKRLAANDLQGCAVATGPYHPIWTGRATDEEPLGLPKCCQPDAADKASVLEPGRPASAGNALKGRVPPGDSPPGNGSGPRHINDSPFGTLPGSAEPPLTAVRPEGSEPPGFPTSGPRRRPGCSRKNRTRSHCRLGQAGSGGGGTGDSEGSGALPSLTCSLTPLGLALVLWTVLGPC
As to the kind of experiment: AP-ligand binding, COS-7.

Assay [6] has as its target T6, human NgR1 alanine mutant 163 (human, UniProt Q9BZR6 27-473).
T6 sequence: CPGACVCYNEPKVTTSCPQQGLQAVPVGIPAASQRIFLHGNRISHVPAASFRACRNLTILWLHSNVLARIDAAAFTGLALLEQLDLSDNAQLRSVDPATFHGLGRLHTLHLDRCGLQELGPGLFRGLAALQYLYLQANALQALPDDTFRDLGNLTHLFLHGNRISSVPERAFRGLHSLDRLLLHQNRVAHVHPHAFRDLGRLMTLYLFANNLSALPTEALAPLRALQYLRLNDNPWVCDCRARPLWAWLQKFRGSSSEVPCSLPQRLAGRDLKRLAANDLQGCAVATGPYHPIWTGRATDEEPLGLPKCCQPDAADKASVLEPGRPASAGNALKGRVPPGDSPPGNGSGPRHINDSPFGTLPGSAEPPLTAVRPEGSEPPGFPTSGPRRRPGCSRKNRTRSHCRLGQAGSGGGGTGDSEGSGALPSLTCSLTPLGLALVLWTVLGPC
As to the kind of experiment: AP-ligand binding, COS-7.

Assay [7] deals with T7, NgR expressed on COS-7 cells (species not stated).
T7 chain: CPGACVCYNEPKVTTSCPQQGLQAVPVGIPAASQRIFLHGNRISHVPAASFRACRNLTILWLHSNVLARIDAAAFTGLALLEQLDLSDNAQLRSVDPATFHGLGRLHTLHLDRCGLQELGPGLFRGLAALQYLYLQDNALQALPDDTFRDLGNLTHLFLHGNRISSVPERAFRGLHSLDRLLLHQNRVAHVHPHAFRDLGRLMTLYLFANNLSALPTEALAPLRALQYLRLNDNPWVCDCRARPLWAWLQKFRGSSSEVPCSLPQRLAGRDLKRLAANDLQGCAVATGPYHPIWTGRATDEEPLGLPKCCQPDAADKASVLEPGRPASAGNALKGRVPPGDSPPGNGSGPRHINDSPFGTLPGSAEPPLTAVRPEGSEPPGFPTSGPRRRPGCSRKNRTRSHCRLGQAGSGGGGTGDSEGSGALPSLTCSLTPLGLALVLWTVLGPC
Description: AP-ligand binding to NgR-expressing COS-7 cells (Scatchard).

B1: AP fusion protein with the B4C fragment of Amino-Nogo-A fused directly to Nogo-66 (ligand)
chain: LLPPDVSALATQAEIESIVKPKVLVKEAEKKLPSDTEKEDRSPSAIFSAELSKTSVVDLLYWRDIKKTGRIYKGVIQAIQKSDEGHPFRAYLESEVAISEELVQKYSNSALGHVNCTIKELRRLFLVDDLVDSLK
notes: domain: Nogo-66; also called AP-B4C66; AP-B4C-66; not shown: alkaline phosphatase (AP), vector pcAP6
For the molecule B1, the binding result in assay [1], in assay [2], in assay [3], in assay [4], in assay [5] and in assay [6] was “no binding” in each case. In addition, in assay [7], binding was put at a Kd of 0.42 nM.
